Measured values: FireProtDB (doi:10.1016/j.ijbiomac.2020.05.059)
Several values for one entry are separate records, joined by “and”; a condition that tells them apart may be missing. Equal values may be shown once.

Details: Equus caballus, pH 6, 25 °C, transition: 2
[1] = GdnHCl, CD, sodium cacodylate, NaCl, reversible: yes, structure 1HRC
[2] = GdnHCl, sodium cacodylate 100 mM, NaCl 100 mM, reversible: no, structure 1HRC
[3] = Urea, CD, sodium cacodylate, NaCl, reversible: yes, structure 1HRC
[4] = Urea, sodium cacodylate 100 mM, NaCl 100 mM, reversible: no, structure 1HRC
[5] = GdnHCl, CD, sodium cacodylate, NaCl, reversible: yes

Chain of Cytochrome c L95I, P00004 (P00004 whole entry L95I): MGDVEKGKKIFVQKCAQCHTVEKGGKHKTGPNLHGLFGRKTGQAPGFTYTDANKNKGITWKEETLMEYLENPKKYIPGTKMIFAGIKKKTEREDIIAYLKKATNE
Chain of Cytochrome c wild type, P00004 (P00004 whole entry): as the sequence (P00004 whole entry L95I) above, with I95L counted along it
Chain of Cytochrome c L95V, P00004 (P00004 whole entry L95V): as the sequence (P00004 whole entry L95I) above, with I95V counted along it

Row | Substance | ddG of mutation (higher = less stable) [1] | denaturant m value [1] | denaturant midpoint (higher = more stable) [1] | unfolding free energy [1] | ddG of mutation (higher = less stable) [2] | denaturant m value [2] | denaturant midpoint (higher = more stable) [2] | unfolding free energy [2] | ddG of mutation (higher = less stable) [3] | denaturant m value [3] | denaturant midpoint (higher = more stable) [3] | unfolding free energy [3] | ddG of mutation (higher = less stable) [4] | denaturant m value [4] | denaturant midpoint (higher = more stable) [4] | unfolding free energy [4] | denaturant m value [5] | denaturant midpoint (higher = more stable) [5] | unfolding free energy [5] | unfolding free energy (Urea, sodium cacodylate 100 mM, NaCl 100 mM, reversible: yes)
1 | Cytochrome c L95I, P00004 | 1.31 kcal/mol and 1.51 kcal/mol | 3.59 kcal/mol/M and 3.64 kcal/mol/M | 2.14 M and 2.15 M | 7.69 kcal/mol and 7.95 kcal/mol | 1.54 kcal/mol and 1.1 kcal/mol and 1.51 kcal/mol | 3.65 kcal/mol/M and 3.49 kcal/mol/M and 3.64 kcal/mol/M | 2.18 M and 2.06 M and 2.15 M | 7.96 kcal/mol and 7.17 kcal/mol and 7.95 kcal/mol | 1.73 kcal/mol and 1.68 kcal/mol | 1.48 kcal/mol/M and 1.47 kcal/mol/M | 5.87 M and 5.89 M | 8.68 kcal/mol and 8.7 kcal/mol | 1.68 kcal/mol and 1.83 kcal/mol | 1.49 kcal/mol/M and 1.47 kcal/mol/M | 5.9 M and 5.89 M | 8.78 kcal/mol and 8.65 kcal/mol and 8.7 kcal/mol |  |  |  | 
2 | Cytochrome c L95V, P00004 | 1.66 kcal/mol and 1.82 kcal/mol | 3.54 kcal/mol/M and 3.61 kcal/mol/M | 2.07 M and 2.11 M | 7.34 kcal/mol and 7.64 kcal/mol |  |  | 2.1 M and 2.01 M and 2.11 M |  | 2.36 kcal/mol | 1.47 kcal/mol/M | 5.46 M | 8.02 kcal/mol |  | 1.48 kcal/mol/M and 1.47 kcal/mol/M | 5.46 M and 5.43 M |  |  |  |  | 
3 | Cytochrome c wild type, P00004 |  |  |  |  |  |  |  |  |  |  |  |  |  |  |  |  | 3.64 kcal/mol/M and 3.73 kcal/mol/M | 2.47 M and 2.53 M | 9 kcal/mol and 9.46 kcal/mol | 10.5 kcal/mol and 10.3 kcal/mol and 10.4 kcal/mol
